Reference: US20260209789A1, “TRIGGER-INDUCIBLE MRNA CIRCULARIZATION” (WESTLAKE UNIVERSITY, priority 2022, published 2026)

Tested on: N2A, Hepa1-6 and B16-F10 cells
Assay: AFP promoter-driven NanoLuc reporter and AFP qRT-PCR
Type: cell-based, murine
Conditions: AFP-deficient cell lines, 48 h
Procedure: (A) Quantification of AFP-levels using (left panel) TSP-driven reporter gene expression and (right panel) qRT-PCR. (left panel) N2A, Hepa1-6 and B16-F10 cells were co-transfected with a PMusAFP-driven NanoLuc expression vector (pSLM54) and a constitutive FLuc expression vector (pYW99). Luciferase levels were quantified at 48 h after transfection. Data presented are mean±SD of relative luciferase activity (NanoLuc/FLuc) for n=3 individual experiments. (right panel) Relative AFP expression levels in N2A, Hepa1-6 and B16-F10 cells were profiled by qRT-PCR using murine AFP-specific primers listed in Table S1 and normalized to the gene encoding murine ribosomal protein (Rplp0).
Reverse transcription-polymerase chain reaction (RT-PCR). For quantitative analysis, PCR reaction was carried out with an initial step of 95° C. for 30 s followed by 40 cycles of 95° C. for 10 s and 60° C. for 30 s on the Applied Biosystems QuantStudio 1 Real-Time PCR System (ThermoFisher Scientific) using the ChamQ Universal SYBR qPCR Master Mix (Vazyme Biotech; cat. no. Q711-02) and the primers listed in Table S1. The relative cycle threshold (CT) was determined and normalized against the expression level of endogenous human glyceraldehyde 3-phosphate dehydrogenase (GAPDH) or murine ribosomal protein (Rplp0) genes. […]

B1: PAFP: alpha-fetoprotein (AFP) promoter, model tissue-specific promoter (nucleic acid)
DNA: AGGGGAAATAATCTATTTGAACAGTTTAGATGGTGAAGAACATTTGCAGCATTTGCAAGATTTTTTTCCACTCTGAAGTGGTCTTTGTCCTTGAACATAGGATACAAGTGACCCCTGCTCTGTTAATTATTGGCAAATTGCCTAACTTCAACGTAAGGAAATAGAGTCATATGTTTGCTCACTGAAGGTTACTAGTTAACAGGCATCCCTTAAACAGGATATAAAAGGACTTCAGCAGGACTGCTCGAAACATCCCACTTCCAGCACTGCCTGCGGTGAAGGA
promoter-driven reporter gene expression (NanoLuc/FLuc): non-specific PAFP-driven reporter gene expression
